Here are results for one molecule from PMC3807968 (2014).

[ ]: non-standard residue; d: D form. The star is where a group is joined. Butanoyl(4-Ph) = O=C(CCCc1ccccc1)*; Butanoyl(4-ethynyl) = C#CCCCC(=O)*

The target of this test is T1, ligand 5 on uncrosslinked micelles, 5% loading (5-UXL) (not fully specified; also: uncrosslinked micelle).
T1 chain: {Butanoyl(4-Ph)}-H[dF]RWGK(Butanoyl(4-ethynyl))-NH2
The test is described as follows: Eu-NDP-α-MSH time-resolved fluorescence whole-cell competition binding.

B1: Melanocortin 1 receptor (protein)
chain: MAVQGSQRRLLGSLNSTPTAIPQLGLAANQTGARCLEVSISDGLFLSLGLVSLVENALVVATIAKNRNLHSPMYCFICCLALSDLLVSGSNVLETAVILLLEAGALVARAAVLQQLDNVIDVITCSSMLSSLCFLGAIAVDRYISIFYALRYHSIVTLPRARRAVAAIWVASVVFSTLFIAYYDHVAVLLCLVVFFLAMLVLMAVLYVHMLARACQHAQGIARLHKRQRPVHQGFGLKGAVTLTILLGIFFLCWGPFFLHLTLIVLCPEHPTCGCIFKNFNLFLALIICNAIIDPLIYAFHSQELRRTLKEVLTCSW
Regarding B1, the Ki – broadly, the dissociation constant of the complex between target and ligand, obtained from inhibition or displacement – came to 12 nM.
